Reference: patent US20070275049A1

Assays:
[1] = biological target: EGFR-derived peptide(s) on MHC class I of EGFR-positive MA782/5S tumor cells (mouse)
[2] = biological target: EGFR-derived peptide(s) on MHC class I (H-2Kb/H-2Db) of EGFR-positive LL/2c tumor cells (mouse)

“spleen T cells of mice immunized by chEGFR molecular vaccine (cells without a defined receptor)” was tested, and the specific cytocidal activity, standard Cr51 test, at the ratio of 40:1 [1] was 42.8% and the specific cytocidal activity, standard Cr51 test, at the ratio of 40:1 [2] was 40.3%.
